Target: T1, preassembled pyrene-actin filaments (Gallus gallus, UniProt P68139)
T1 construct: Extract chicken breast acetone powder (as prepared above) in Buffer A; from tissue; host or cells: chicken breast muscle (actin); E. coli (cofilin, made in house)
Assay: pyrene actin assay (fluorescence of preassembled pyrene-actin filaments)
Assay type: biochemical, chicken
Details: addition of stoichiometric amounts of cofilin to preassembled pyrene-actin filaments; binding to actin polymer and enhancing depolymerization combined
Excerpt: Assays for the interaction of A. fumigatus cofilin and any other cofilin with actin in 384-well plates using a fluorescence as the detection means have been developed. The assays employ pyrene-labeled actin (Pollard (1984) J Cell Biol 99:769-777).
Upon addition of cofilin to filamentous pyrene-actin, two well-characterized biochemical activities can be monitored. First, cofilin binds to the filaments and partially quenches the pyrene fluorescence. Second, it induces filament disassembly, further decreasing pyrene fluorescence. The decrease in fluorescence that results when cofilin is added to filamentous actin is monitored (FIG. 3). An inhibitor of the interaction of cofilin with pyrene-actin will result in an increase in fluorescence.
This very robust signal can be exploited to an assay for modulators of cofilin. Chicken skeletal actin was used because it can be purified in quantities needed for high throughput screening; it is 90% identical in amino acid sequence to fungal actin, and it can assemble into copolymers with fungal actin. Pyrene-labeled skeletal actin has been prepared and characterized as to its polymerization properties as well as for its interaction with fungal cofilin.

B1: A. fumigatus cofilin: protein of A. fumigatus capable of binding actin, amino acid sequence SEQ ID NO:2, expressed in E. coli (protein, listed as Aspergillus fumigatus)
chain: MALASGVSIADECITAFNDFRMSGNKANKTKFIIFKIADNKKEVVIDEVSQEEDYEVFRSRLEATKDSKGNPAPRYAVYDVEYDLGGGEGKRSKIVFISWVPSDTPTLWSMIYASTRENLKNALNIHTSIHADDKGDIEWKTVLAEASGGKAGK
  reduction in fluorescence intensity: 3-5 fold

Source: US6458930B1, “Aspergillus fumigatus cofilin” (Cytokinetics, Inc., priority 2000, dated 2002)
